This passage reports EC50 results from patent US20250002610A1 (Genmab, published 2025).

T1: human DR4 (Death Receptor 4), cell surface expressed on human tumor cell lines (human, UniProt O00220 24-468)
T1 construct: also called TNFRSF10A; TRAIL-R1
T1 sequence: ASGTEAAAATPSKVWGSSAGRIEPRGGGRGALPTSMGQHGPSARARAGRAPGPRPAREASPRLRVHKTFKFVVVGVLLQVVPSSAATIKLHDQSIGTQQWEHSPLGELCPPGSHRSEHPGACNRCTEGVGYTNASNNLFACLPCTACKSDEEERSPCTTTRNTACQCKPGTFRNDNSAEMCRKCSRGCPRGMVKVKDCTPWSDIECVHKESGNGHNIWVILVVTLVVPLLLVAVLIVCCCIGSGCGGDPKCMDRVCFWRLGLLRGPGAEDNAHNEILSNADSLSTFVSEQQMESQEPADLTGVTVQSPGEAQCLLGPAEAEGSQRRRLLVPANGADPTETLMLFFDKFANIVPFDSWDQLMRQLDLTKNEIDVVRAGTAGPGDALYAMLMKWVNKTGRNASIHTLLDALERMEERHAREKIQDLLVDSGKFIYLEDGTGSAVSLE

T2: human FAPα (Fibroblast activation protein alpha), cell surface expressed (human, UniProt Q12884 1-760)
T2 construct: Endogenous on human lung fibroblasts and CAFs
T2 sequence: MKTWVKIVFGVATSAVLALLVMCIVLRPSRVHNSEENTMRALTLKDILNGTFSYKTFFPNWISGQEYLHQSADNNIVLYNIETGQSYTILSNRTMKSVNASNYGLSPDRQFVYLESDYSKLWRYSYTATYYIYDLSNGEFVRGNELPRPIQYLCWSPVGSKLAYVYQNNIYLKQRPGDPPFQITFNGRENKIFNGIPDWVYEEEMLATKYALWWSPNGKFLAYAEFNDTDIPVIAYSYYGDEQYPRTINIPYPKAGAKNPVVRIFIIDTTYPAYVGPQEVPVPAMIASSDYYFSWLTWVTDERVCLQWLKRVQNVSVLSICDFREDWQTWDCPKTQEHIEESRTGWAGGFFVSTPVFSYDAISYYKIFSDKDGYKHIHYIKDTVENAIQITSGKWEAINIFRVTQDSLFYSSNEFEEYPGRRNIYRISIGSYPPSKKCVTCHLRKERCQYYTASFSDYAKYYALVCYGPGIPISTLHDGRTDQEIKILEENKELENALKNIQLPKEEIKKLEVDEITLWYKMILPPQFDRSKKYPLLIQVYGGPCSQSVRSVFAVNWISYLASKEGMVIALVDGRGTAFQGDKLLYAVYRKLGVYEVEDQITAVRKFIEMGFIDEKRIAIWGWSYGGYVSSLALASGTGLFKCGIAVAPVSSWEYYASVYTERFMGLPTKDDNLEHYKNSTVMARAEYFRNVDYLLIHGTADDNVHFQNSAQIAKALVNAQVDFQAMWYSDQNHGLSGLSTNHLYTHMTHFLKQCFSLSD

B1: BisG1-FAPα-FERL/DR4-FERR (bispecific antibody, human IgG1, kappa, lambda)
heavy 1: EVQLLESGGGLVQPGGSPRLSCEASGFTFSSYALSWVRQAPGKGLEWVSAISGSGGGRYYADSVKGRFTISRDNSKNTLFLQMNSLRAEDTAVYYCAKEGYSSSGTYWDHWGQGTLVTVSSASTKGPSVFPLAPSSKSTSGGTAALGCLVKDYFPEPVTVSWNSGALTSGVHTFPAVLQSSGLYSLSSVVTVPSSSLGTQTYICNVNHKPSNTKVDKRVEPKSCDKTHTCPPCPAPEFERGPSVFLFPPKPKDTLMISRTPEVTCVVVDVSHEDPEVKFNWYVDGVEVHNAKTKPREEQYNSTYRVVSVLTVLHQDWLNGKEYKCKVSNKALPAPIEKTISKAKGQPREPQVYTLPPSREEMTKNQVSLTCLVKGFYPSDIAVEWESNGQPENNYKTTPPVLDSDGSFLLYSKLTVDKSRWQQGNVFSCSVMHEALHNHYTQKSLSLSPG
light 1: AIQMTQSPSSVSASVGDRVTITCRASQGVSSWLAWYQQKPGRAPKLLIYVASTLQSGVPSRFSGSGSGTDFTLTINSLQPEDFATYYCQQANSFPPTFGQGTRLEMKRTVAAPSVFIFPPSDEQLKSGTASVVCLLNNFYPREAKVQWKVDNALQSGNSQESVTEQDSKDSTYSLSSTLTLSKADYEKHKVYACEVTHQGLSSPVTKSFNRGEC
heavy 2: QVQLQESGPGLVKPSGTLSLTCAVSGGSISSYSWWSWIRQPPGKGLEWIGELYHSGSTNYNPSLKSRVTISVDKSKNQFSLKLRSVTAADTAVYYCVRGVATIDYWGQGTLVTVSSASTKGPSVFPLAPSSKSTSGGTAALGCLVKDYFPEPVTVSWNSGALTSGVHTFPAVLQSSGLYSLSSVVTVPSSSLGTQTYICNVNHKPSNTKVDKRVEPKSCDKTHTCPPCPAPEFERGPSVFLFPPKPKDTLMISRTPEVTCVVVDVSHEDPEVKFNWYVDGVEVHNAKTKPREEQYNSTYRVVSVLTVLHQDWLNGKEYKCKVSNKALPAPIEKTISKAKGQPREPQVYTLPPSREEMTKNQVSLTCLVKGFYPSDIAVEWESNGQPENNYKTTPPVLDSDGSFFLYSRLTVDKSRWQQGNVFSCSVMHEALHNHYTQKSLSLSPG
light 2: QSALTQPPSASGSPGQSVTISCTGTSSDVGGYNFVSWYQQDPGKAPKLLIYEVTKRPSGVPDRFSGSKSGNTASLTVSGLQAEDEADYYCSSYAGSNNVMFGGGTKLTVLGQPKAAPSVTLFPPSSEELQANKATLVCLISDFYPGAVTVAWKADSSPVKAGVETTTPSKQSNNKYAASSYLSLTPEQWKSHRSYSCQVTHEGSTVEKTVAPTECS
notes: Human IgG1 bispecific made by controlled Fab-arm exchange of IgG1-FAPα-FERL and IgG1-DR4-FERR; monovalent for FAPα and for DR4; also called GEN1057
B2: BisG1-b12-FERL/DR4-FERR (bispecific antibody, human IgG1, kappa, lambda)
heavy 1: QVQLVQSGAEVKKPGASVKVSCQASGYRFSNFVIHWVRQAPGQRFEWMGWINPYNGNKEFSAKFQDRVTFTADTSANTAYMELRSLRSADTAVYYCARVGPYSWDDSPQDNYYMDVWGKGTTVIVSSASTKGPSVFPLAPSSKSTSGGTAALGCLVKDYFPEPVTVSWNSGALTSGVHTFPAVLQSSGLYSLSSVVTVPSSSLGTQTYICNVNHKPSNTKVDKRVEPKSCDKTHTCPPCPAPEFERGPSVFLFPPKPKDTLMISRTPEVTCVVVDVSHEDPEVKFNWYVDGVEVHNAKTKPREEQYNSTYRVVSVLTVLHQDWLNGKEYKCKVSNKALPAPIEKTISKAKGQPREPQVYTLPPSREEMTKNQVSLTCLVKGFYPSDIAVEWESNGQPENNYKTTPPVLDSDGSFLLYSKLTVDKSRWQQGNVFSCSVMHEALHNHYTQKSLSLSPG
light 1: EIVLTQSPGTLSLSPGERATFSCRSSHSIRSRRVAWYQHKPGQAPRLVIHGVSNRASGISDRFSGSGSGTDFTLTITRVEPEDFALYYCQVYGASSYTFGQGTKLERKRTVAAPSVFIFPPSDEQLKSGTASVVCLLNNFYPREAKVQWKVDNALQSGNSQESVTEQDSKDSTYSLSSTLTLSKADYEKHKVYACEVTHQGLSSPVTKSFNRGEC
heavy 2: B1 heavy 2
light 2: B1 light 2
notes: Fab-arm exchange of IgG1-b12-FERL and IgG1-DR4-FERR; also called bsIgG1-ctrl-FERLxDR4-FERR
B3: IgG1-DR4-FERR (antibody, V domains shown)
VH: QVQLQESGPGLVKPSGTLSLTCAVSGGSISSYSWWSWIRQPPGKGLEWIGELYHSGSTNYNPSLKSRVTISVDKSKNQFSLKLRSVTAADTAVYYCVRGVATIDYWGQGTLVTVSS
VL: QSALTQPPSASGSPGQSVTISCTGTSSDVGGYNFVSWYQQDPGKAPKLLIYEVTKRPSGVPDRFSGSKSGNTASLTVSGLQAEDEADYYCSSYAGSNNVMFGGGTKLTVLG
notes: Bivalent monoclonal IgG1 lambda
B4: BisG1-FAPα-FERL/b12-FERR (bispecific antibody, human IgG1, kappa)
heavy 1: B1 heavy 1
light 1: B1 light 1
heavy 2: B2 heavy 1 with L415F, K419R
light 2: B2 light 1
B5: IgG1-FAPα-FERL (antibody)
heavy: B1 heavy 1
light: B1 light 1
notes: Bivalent monoclonal IgG1 kappa

Residue numbers refer to the chain shown, from its start.

In the first experiment the target is T1, human DR4 (Death Receptor 4), cell …. Nature of the experiment: flow cytometry, A549 cells, n = 3.
As usually defined, the EC50 is the concentration at which the effect is half-maximal. A lower EC50 goes with a more potent agent. On to B1, for which the 50% effective concentration (EC50) amounted to 0.87 µg/mL.
Same read-out and setting: in the case of B2 it was 0.78 µg/mL; in that of B3, 0.21 µg/mL.

In another experiment the target is T2, human FAPα (Fibroblast activation …). As to the kind of experiment: flow cytometry, human lung fibroblasts, n = 1. How it is done: Binding of bispecific or monoclonal antibodies carrying the anti-FAPα arm derived from IgG1-FAPα-FERL (BisG1-FAPα-FERL/DR4-FERR, BisG1-FAPα-FERL/b12-FERR, and IgG1-FAPα-FERL) to cell surface expressed human FAPα was analyzed by flow cytometry using human lung fibroblasts and CAFs, which endogenously express FAPα. BisG1-b12-FERL/b12-FERR was used as negative control.
Human lung fibroblasts and CAFs (50,000 cells/well) were seeded in 96-Well round bottom plates (Greiner Bio-one, Cat #650101). Antibody dilutions were prepared using fluorescence-activated cell sorting (FACS) buffer, consisting of phosphate buffer saline (PBS, Lonza, Cat #BE17-517Q)+1% Bovine Serum Albumin (BSA, Roche, Cat #10735086001)+0.02% Sodium Azide (Bio-World, Cat #41920044-3). Plates were centrifuged, supernatant was removed, cells were resuspended in 50 μL of human Fc Block (BD, Cat #564220, diluted 1:100 in FACS buffer) and 50 μL of viability stain TO-PRO-3 Iodide (Thermo Fisher, Cat #T3605, diluted 1: 25,000 in FACS buffer), and incubated for 15 min at 4° C. Plates were washed three times with FACS buffer. Plates were centrifuged, supernatant was removed, cells were resuspended in 50 μL of antibody dilutions (concentration range 90-0.0005 μg/mL, three-fold dilution steps using FACS buffer) of BisG1-FAPα-FERL/DR4-FERR, BisG1-FAPα-FERL/b12-FERR, BisG1-b12-FERL/b12-FERR (top six concentrations only for CAFs culture) or IgG1-FAPα-FERL (top four concentrations only for CAFs culture) and incubated for 30 min at 4° C. Cells were washed three times with FACS buffer and resuspended in 50 μL of Fluorescein isothiocyanate (FITC)-labeled polyclonal antibody goat anti-mouse IgG1 (Jackson Immuno Research, Cat #109-096-097, diluted 1:100 in FACS buffer). […] Antibody binding to viable cells (TO-PRO-3 negative) was analyzed by flow cytometry on a FACSCelesta™ (BD biosciences) and data were processed using FlowJo_v10.8.1 (FlowJo LLC). Geomean fluorescence intensity, gMFI, was determined and visualized using GraphPad Prism.
As to B1, the response was half-maximal at 0.046 µg/mL (EC50).
On the same count and under the same terms, next, B4: 0.043 µg/mL; B5: 0.016 µg/mL.
